Bridge positions count the residues as written; N and C are the ends. Square brackets hold non-standard residues; d marks the D form. Ends that are not written are not given here. * marks the point of attachment. Acetyl(2-(4-imidazolyl)) = O=C(Cc1c[nH]cn1)*; Aib = CC(C)(N)C(=O)O
T1: human GIP receptor (human, UniProt P48546 22-466)
T1 sequence (looked up): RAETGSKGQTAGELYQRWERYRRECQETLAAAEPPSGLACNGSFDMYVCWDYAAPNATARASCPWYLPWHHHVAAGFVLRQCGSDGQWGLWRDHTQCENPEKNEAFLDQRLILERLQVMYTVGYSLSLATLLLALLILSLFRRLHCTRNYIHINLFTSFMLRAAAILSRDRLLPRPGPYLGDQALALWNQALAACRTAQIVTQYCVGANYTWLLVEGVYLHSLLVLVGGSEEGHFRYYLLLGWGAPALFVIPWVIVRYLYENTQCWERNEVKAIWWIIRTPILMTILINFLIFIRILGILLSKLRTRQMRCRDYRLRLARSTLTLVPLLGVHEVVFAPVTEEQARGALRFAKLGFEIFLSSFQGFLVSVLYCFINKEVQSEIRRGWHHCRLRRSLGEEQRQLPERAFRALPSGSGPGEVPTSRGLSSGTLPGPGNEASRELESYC

B1: Triple agonist of SEQ ID NO: 67 (peptide)
peptide: Y[Aib]QGTFTSDYSKYLDECAAKDFVQWLLDHHPSSGQPPPS
modifications: bridge (positions not given here); ends not checked; also: ring formation between underlined amino acids, places not given here

Assays:
Assay in all cases: cell-based or functional assay
human GIP receptor = biological target: T1, human GIP receptor
human GLP-1 receptor = human GLP-1 receptor (human, UniProt P43220 24-463)
human GCG receptor = human GCG receptor (human, UniProt P47871 26-477)
Sequence of human GCG receptor (P47871 26-477): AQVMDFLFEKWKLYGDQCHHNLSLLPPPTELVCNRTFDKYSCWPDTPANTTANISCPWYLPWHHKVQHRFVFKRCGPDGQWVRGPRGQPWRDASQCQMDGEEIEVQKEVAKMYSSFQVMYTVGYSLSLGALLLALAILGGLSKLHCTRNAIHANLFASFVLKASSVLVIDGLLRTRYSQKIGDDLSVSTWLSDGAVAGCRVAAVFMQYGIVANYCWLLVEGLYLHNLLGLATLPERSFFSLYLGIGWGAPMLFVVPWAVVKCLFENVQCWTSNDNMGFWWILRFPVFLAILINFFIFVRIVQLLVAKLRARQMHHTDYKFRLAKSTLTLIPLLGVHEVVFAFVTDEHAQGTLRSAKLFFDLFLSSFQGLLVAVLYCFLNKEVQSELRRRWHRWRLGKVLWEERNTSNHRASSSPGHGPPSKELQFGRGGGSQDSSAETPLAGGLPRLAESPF

| Binder | In vitro activity compared to native peptide (%) vs GIP (human GIP receptor) [%] | In vitro activity compared to native peptide (%) vs GLP-1 (human GLP-1 receptor) [%] | In vitro activity compared to native peptide (%) vs Glucagon (human GCG receptor) [%] |
| --- | --- | --- | --- |
| {Acetyl(2-(4-imidazolyl))}-[Aib]QGTFTSDYSIAMDEIACKDFVNWLLNTK (bridge 15-19) [Triple agonist of SEQ ID NO: 61] | 2.8 | 59.8 | < 0.1 |
| {Acetyl(2-(4-imidazolyl))}-[Aib]QGTFTSDKSKYLDERAAQDFVQWLLDGGPSSGAPPPS [Triple agonist of SEQ ID NO: 62] | < 0.1 | 5.2 | < 0.1 |
| {Acetyl(2-(4-imidazolyl))}-[Aib]QGTFTSDCSKYLDERAAQDFVQWLLDGGPSSGAPPPS [Triple agonist of SEQ ID NO: 63] | < 0.1 | 15.3 | < 0.1 |
| Y[Aib]QGTFTSDYSKYLDECAAKEFVQWLLDHHPSSGQPPPS (bridge 16-20) [Triple agonist of SEQ ID NO: 64] | 92.9 | 64.6 | 60.1 |
| H[Aib]QGTFTSDVSKYLDGQAAKEFVAWLLKGC [Triple agonist of SEQ ID NO: 7] | < 0.1 | 13.7 | < 0.1 |
| H[Aib]QGTFTSDYSKCLDEKRAKEFVQWLLDHHPSSGQPPPS (bridge 16-20) [Triple agonist of SEQ ID NO: 65] | 11.6 | 95.4 | 25.2 |
| Y[Aib]QGTFTSDYSKYLDECRAKDFVQWLLDHHPSSGQPPPS (bridge 16-20) [Triple agonist of SEQ ID NO: 66] | 17.2 | 15.8 | 172 |
| B1 | 39.8 | 28.5 | 46.2 |
| Y[Aib]QGTFTSDYSKCLDEKAAKEFVQWLLDHHPSSGQPPPS (bridge 16-20) [Triple agonist of SEQ ID NO: 68] | 107 | 27.9 | 8.8 |
| Y[Aib]QGTFTSDYSKCLDERAAKEFVQWLLDHHPSSGQPPPS (bridge 16-20) [Triple agonist of SEQ ID NO: 69] | 62.8 | 24.3 | 9.6 |
| Y[Aib]QGTFTSDYSKCLDEKRAKDFVQWLLDHHPSSGQPPPS (bridge 16-20) [Triple agonist of SEQ ID NO: 70] | 64.4 | 15.1 | 71.3 |
| Y[Aib]QGTFTSDYSKYLDERACKDFVQWLLDHHPSSGQPPPS (bridge 16-20) [Triple agonist of SEQ ID NO: 71] | 94.7 | 90.1 | 12.7 |

Source: US20230381281A1, “PHARMACEUTICAL COMPOSITION COMPRISING GLUCAGON/GLP-1/GIP TRIPLE AGONIST OR LONG-ACTING CONJUGATE THEREOF FOR PREVENTING OR TREATING LUPUS-RELATED DISEASES” (HANMI PHARM. CO., LTD., priority 2020, published 2023)
